Assay results as given in patent publication US20220323445A1, “REDUCING IMMUNOGENICITY TO PEGLOTICASE” (Horizon Therapeutics Ireland DAC, priority 2020, published 2022).

Tested on: serum uric acid (sUA)
Test: Serum uric acid (sUA) levels and sUA responders, open-label study of pegloticase with MTX (NCT03635957)
Type: in vivo, human
Method: The primary objective is to estimate the response rate during Month 6 (Weeks 20, 22, and 24), as measured by the sustained normalization of serum uric acid (SUA) to <6 mg/dL for at least 80% of the time during Month 6 in subjects receiving KXX with MTX.
The primary efficacy outcome endpoint is the sustained normalization of SUA to <6 mg/dL for at least 80% of the time during month 6 (weeks 20, 22, and 24) in subjects receiving KXX with MTX. This is slightly below the urate solubility threshold and this threshold has been the accepted standard for nearly all modern gout trials. Participants who achieve this endpoint were classified as “responders.” Serum uric acid (SUA) responders may also be defined as participants achieving and maintaining SUA <6 mg/dL for at least 80% of the time during Month 6 (Weeks 20, 22, and 24).
Blood samples may be collected prior to each pegloticase infusion for measurement of SUA levels using the Beckman Coulter AU System Uric Acid procedure. Participants were declared “non-responders” if there were SUA measures >6 mg/dL at 2 consecutive study visits beginning with the week 2 visit. […] If the SUA goal is not maintained before or at the 12-week mark, it was assumed that the participant had developed clinically relevant anti-pegloticase antibody and they received no further infusions. This assumption and subsequent discontinuation of pegloticase was consistent with the protocol of large phase III randomized controlled trials and the product label. A formal stopping rule was 2 occasions of SUA levels of greater than 6 mg/dL.
Clinical Chemistry—Blood samples were collected prior to each pegloticase infusion for measurement of SUA levels (primary efficacy parameter) using the Beckman Coulter AU System Uric Acid procedure. In this procedure uric acid is converted to hydrogen peroxide. Hydrogen peroxide reacts with reagent to produce a chromophore which is read bichromatically at 660/800 nm. The amount of dye formed is proportional to the uric acid concentration in the sample.
Serum samples for measurement of SUA levels were collected at the Screening Visit, the Week −4 Visit (prior to the first dose of MTX), and the Week −2 Visit during the MTX Run-in Period; within 48 hours prior to each pegloticase infusion and after the end of each pegloticase infusion prior to discharge from the site during the Pegloticase+IMM Period; at the non-infusion Week 52/End of Study/Early Termination Visits and at the Post Treatment 3 and 6 Month Follow-up Visits. Additional serum samples for SUA levels were collected at optional non-infusion (Frequent Sampling) Visits at Weeks 1 and 7. […] Subjects with SUA level >6 mg/dL at 2 consecutive visits beginning at Week 2 visit discontinued treatment, completed the End of Pegloticase Infusion Visit procedures within 2 weeks and continued the subject visits according to the protocol (without treatment).
Efficacy analyses were performed using the modified intention-to-treat (mITT) population, defined as all enrolled subjects who received ≥1 dose of pegloticase. The proportion of Month 6 responders was summarized, along with a 95% confidence interval for the proportion. The proportion of Month 3 and overall (Months 3 and 6 combined) responders was analyzed similarly.
A subject was declared a non-responder if the subject had SUA level >6 mg/dL at 2 consecutive study visits beginning with the Week 2 Visit. In addition, a subject who withdraws from study treatment for any reason after the first dose of pegloticase in the KXX+MTX Period and prior to Month 6 (for the primary endpoint) or Month 3 (for the secondary endpoint) was considered a non-responder if SUA values were not collected at the planned time points.
Patients were administered oral MTX (15 mg/week) and folate (1 mg/day) 4 weeks prior to the first pegloticase infusion (Day 1) and throughout the pegloticase treatment period. […]

[1] = Week 6 - Pre-Infusion, Month 6 sUA Responders
[2] = Week 6 - Pre-Infusion, mITT, n=13
[3] = Week 8 - Post-Infusion, Month 6 sUA Non-Responders
[4] = Week 8 - Post-Infusion, Month 6 sUA Responders
[5] = Week 8 - Post-Infusion, mITT, n=12
[6] = Week 8 - Pre-Infusion, Month 6 sUA Non-Responders
[7] = Week 8 - Pre-Infusion, Month 6 sUA Responders
[8] = Week 8 - Pre-Infusion, mITT, n=12
[9] = Week 10 - Post-Infusion, Month 6 sUA Responders
[10] = Week 10 - Post-Infusion, mITT, n=11
[11] = Week 10 - Pre-Infusion, Month 6 sUA Non-Responders
[12] = Week 10 - Pre-Infusion, Month 6 sUA Responders
[13] = Week 10 - Pre-Infusion, mITT, n=12
[14] = Week 12 - Post-Infusion, Month 6 sUA Responders

B1: pegloticase (protein)
chain: TYKKNDEVEFVRTGYGKDMIKVLHIQRDGKYHSIKEVATTVQLTLSSKKDYLHGDNSDVIPTDTIKNTVNVLAKFKGIKSIETFAVTICEHFLSSFKHVIRAQVYVEEVPWKRFEKNGVKHVHAFIYTPTGTHFCEVEQIRNGPPVIHSGIKDLKVLKTTQSGFEGFIKDQFTTLPEVKDRCFATQVYCKWRYHQGRDVDFEATWDTVRSIVLQKFAGPYDKGEYSPSVQKTLYDIQVLTLGQVPEIEDMEISLPNIHYLNIDMSKMGLINKEEVLLPLDNPYGKITGTVKRKLSSRL
modifications: monomethoxy PEG conjugated; Krystexxa Sequence
notes: covalent conjugate of uricase produced by a genetically modified strain of Escherichia coli and monomethoxypoly (ethylene glycol)
sUA < 6 mg/dL, % [1]: (100%) | sUA Change from Baseline, Mean [1]: -8.97 mg/dL | sUA Change from Baseline, Median [1]: -8.80 mg/dL | sUA Observed, Mean [1]: 0.30 mg/dL | sUA Observed, Median [1]: 0.30 mg/dL | sUA < 6 mg/dL, n (%) [2]: 12 (92.3%) | sUA Change from Baseline, Mean (SD) [2]: −8.31 (3.538) mg/dL | sUA Change from Baseline, Median [2]: -8.80 mg/dL | sUA Observed, Mean (SD) [2]: 0.91 (2.191) mg/dL | sUA Observed, Median [2]: 0.30 mg/dL | sUA < 6 mg/dL, % (Week 7, Month 6 sUA Responders): (100%) | sUA Change from Baseline, Mean (Week 7, Month 6 sUA Responders): -8.90 mg/dL | sUA Observed, Mean (Week 7, Month 6 sUA Responders): 0.30 mg/dL | sUA < 6 mg/dL, n (%) (Week 7, mITT, n=4): 4 (100%) | sUA Change from Baseline, Mean (SD) (Week 7, mITT, n=4): −8.90 (4.755) mg/dL | sUA Change from Baseline, Median (Week 7, mITT, n=4): -7.85 mg/dL | sUA Observed, Mean (SD) (Week 7, mITT, n=4): 0.30 (0.000) mg/dL | sUA Observed, Median (Week 7, mITT, n=4): 0.30 mg/dL | sUA < 6 mg/dL, % [3]: (100%) | sUA Change from Baseline, Mean [3]: -9.10 mg/dL | sUA Observed, Mean [3]: 0.30 mg/dL | sUA < 6 mg/dL, % [4]: (100%) | sUA Change from Baseline, Mean [4]: -8.97 mg/dL | sUA Observed, Mean [4]: 0.30 mg/dL | sUA < 6 mg/dL, n (%) [5]: 12 (100%) | sUA Change from Baseline, Mean (SD) [5]: −8.98 (2.679) mg/dL | sUA Change from Baseline, Median [5]: -8.95 mg/dL | sUA Observed, Mean (SD) [5]: 0.30 (0.000) mg/dL | sUA Observed, Median [5]: 0.30 mg/dL | sUA Change from Baseline, Mean [6]: -0.50 mg/dL | sUA Observed, Mean [6]: 8.90 mg/dL | sUA < 6 mg/dL, % [7]: (100%) | sUA Change from Baseline, Mean [7]: -8.91 mg/dL | sUA Observed, Mean [7]: 0.37 mg/dL | sUA < 6 mg/dL, n (%) [8]: 11 (91.7%) | sUA Change from Baseline, Mean (SD) [8]: −8.20 (3.624) mg/dL | sUA Change from Baseline, Median [8]: -8.33 mg/dL | sUA Observed, Mean (SD) [8]: 1.08 (2.472) mg/dL | sUA Observed, Median [8]: 0.30 mg/dL | sUA < 6 mg/dL, % [9]: (100%) | sUA Change from Baseline, Mean [9]: -8.97 mg/dL | sUA Change from Baseline, Median [9]: -8.80 mg/dL | sUA Observed, Mean [9]: 0.30 mg/dL | sUA Observed, Median [9]: 0.30 mg/dL | sUA < 6 mg/dL, n (%) [10]: 11 (100%) | sUA Change from Baseline, Mean (SD) [10]: −8.97 (2.810) mg/dL | sUA Change from Baseline, Median [10]: -8.80 mg/dL | sUA Observed, Mean (SD) [10]: 0.30 (0.000) mg/dL | sUA Observed, Median [10]: 0.30 mg/dL | sUA Change from Baseline, Mean [11]: -1.30 mg/dL | sUA Observed, Mean [11]: 8.10 mg/dL | sUA < 6 mg/dL, % [12]: (100%) | sUA Change from Baseline, Mean [12]: -8.97 mg/dL | sUA Observed, Mean [12]: 0.30 mg/dL | sUA < 6 mg/dL, n (%) [13]: 11 (91.7%) | sUA Change from Baseline, Mean (SD) [13]: −8.33 (3.476) mg/dL | sUA Change from Baseline, Median [13]: -8.70 mg/dL | sUA Observed, Mean (SD) [13]: 0.95 (2.252) mg/dL | sUA Observed, Median [13]: 0.30 mg/dL | sUA < 6 mg/dL, % [14]: (100%) | sUA Change from Baseline, Mean [14]: -9.13 mg/dL | sUA Change from Baseline, Median [14]: -9.05 mg/dL | sUA Observed, Mean [14]: 0.30 mg/dL | sUA Observed, Median [14]: 0.30 mg/dL | sUA < 6 mg/dL, n (%) (Week 12 - Post-Infusion, mITT, n=10): 10 (100%)
